According to patent US5854216A, “Marker for growth hormone-releasing factor receptors” (Universite de Montreal, priority 1996, dated 1998):
Square brackets hold non-standard residues; d marks the D form. Peptide text beside a SMILES is read from it.

What was measured:
[1] = molecular target: T1, GRF receptor of rat adenopituitary (rat, UniProt Q02644-2); assay: displacement of 125I-Tyr10 hGRF(1-44)NH2 from rat anterior pituitary homogenate
T1 sequence: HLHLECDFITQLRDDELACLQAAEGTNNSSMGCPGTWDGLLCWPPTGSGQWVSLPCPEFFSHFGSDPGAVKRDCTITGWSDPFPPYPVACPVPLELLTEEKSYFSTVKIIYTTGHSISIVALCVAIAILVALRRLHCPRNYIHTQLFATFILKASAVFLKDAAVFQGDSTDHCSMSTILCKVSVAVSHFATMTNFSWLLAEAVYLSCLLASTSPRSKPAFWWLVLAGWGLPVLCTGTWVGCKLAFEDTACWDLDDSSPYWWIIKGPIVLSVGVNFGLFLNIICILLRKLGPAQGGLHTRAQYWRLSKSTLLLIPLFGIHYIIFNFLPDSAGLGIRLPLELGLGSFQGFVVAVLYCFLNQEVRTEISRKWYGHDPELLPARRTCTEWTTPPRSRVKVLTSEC

[2] = molecular target: T2, GRF receptors ([^125 I-Tyr^10 ]hGRF(1-44)NH2 binding sites in rat adenopituitary) (Rattus norvegicus, UniProt Q02644); assay: Competitive binding assay with [^125 I-Tyr^10 ]hGRF(1-44)NH2 on anterior pituitary homogenates; settings: for Relative affinity: ratio IC50 of hGRF(1-29)NH2 /IC50 analogue
T2 construct: from tissue; host or cells: rat anterior pituitary homogenate
T2 sequence (Q02644 23-423 isoform Q02644-2 limits assumed): T1 sequence
Experimental: The binding of [^125 I-Tyr^10 ]hGRF(1-44)NH2 was performed on anterior pituitary homogenates as previously described (Gaudreau P. et al., J. Biol. Chem., 1992, 35:1864-1869). Briefly, anterior pituitaries (pit.) were dissected out, rinsed and homogenized for 8 sec with a Micro Ultrasonic Cell Disrupter™, in ice-cold 50 mM Tris-HCl buffer, pH 7.4, containing 5 mM MgCl2 and 5 mM EDTA (1 pit./0.5 ml). These homogenates were used immediately. Competition studies were performed using 35-50 pM [^125 I-Tyr^10 ]hGRF(1-44)NH2 as radio-ligand,50 μl of homogenate (70 to 75 μg of protein), and increasing concentrations of Nε-CF-[Lys^31 ]hGRF or other GRF analogues (0-1000 nM) or with 2.4 μM rGRF(1-29)NH2 for determination of non-specific binding, in a total volume of 300 μl of Tris-HCl buffer, pH 7.4, containing 5 mM EDTA, 5 mM MgCl2 and 0.42% BSA. Incubations were carried out at 23° C. for 60 min and stopped by centrifugation (12,000 g, 5 min, at 4° C.). The radioactivity content in the pellet was measured by gamma counting. The affinity of hGRF(1-29)NH2 was tested in each experiment to assess the validity of the assay and determine the relative affinity of the analogues. […] The Hill values indicate that all these peptides bind to the high and low affinity GRF binding sites found in the anterior pituitary.

Compound	IC50 [1]	Relative affinity (%) against hGRF(1-29)NH2 [1]	other results
4'-benzoyl-phenylalyl^10 !hGRF(1-29)NH2 (from UniProt P01286) (peptide)	5.77 nM	45%	
4'-benzoyl-phenylalyl^10 ]hGRF(1-29)NH2 [bpa^10]			IC50 (in words) [2]: low nanomolar range; affinity for adenopituitary GRF receptors (in words) [2]: high affinity
4'-nitro-phenylanalylalanine^9 !hGRF(1-29)NH2 (from UniProt P01286) (peptide)	9.97 nM	27%	
CC[C@H](C)[C@H](NC(=O)[C@H](C)NC(=O)[C@H](CC(=O)O)NC(=O)[C@@H](C)NC(=O)[C@@H](N)Cc1ccc(O)cc1)C(=O)N[C@@H](Cc1ccccc1)C(=O)N[C@H](C(=O)N[C@@H](C)C(=O)N[C@@H](CO)C(=O)N[C@H](Cc1ccc(O)cc1)C(=O)N[C@@H](CCCNC(=N)N)C(=O)N[C@@H](CCCCN)C(=O)N[C@H](C(=O)N[C@@H](CC(C)C)C(=O)N[C@@H](C)C(=O)N[C@@H](CCC(N)=O)C(=O)N[C@@H](CC(C)C)C(=O)N[C@@H](CO)C(=O)N[C@@H](C)C(=O)N[C@@H](CCCNC(=N)N)C(=O)N[C@H](CCCCN)C(=O)N[C@@H](CCCCN)C(=O)N[C@@H](CC(C)C)C(=O)N[C@@H](CCC(N)=O)C(=O)N[C@@H](CC(=O)O)C(=O)N[C@H](C(=O)N[C@@H](CCSC)C(=O)N[C@@H](CO)C(=O)N[C@@H](CCCNC(=N)N)C(N)=O)[C@@H](C)CC)C(C)C)[C@@H](C)O (H-Y[dA]DAIFTAS[dY]RKVLAQLSAR[dK]KLQDIMSR-NH2)			Hill coef. ([2]; Table 11): 0.63 ± 0.07; Relative affinity ([2]; Table 11): 500 ± 91%
CC[C@H](C)[C@H](NC(=O)[C@H](C)NC(=O)[C@H](CC(=O)O)NC(=O)[C@@H](C)NC(=O)[C@@H](N)Cc1ccc(O)cc1)C(=O)N[C@@H](Cc1ccccc1)C(=O)N[C@H](C(=O)N[C@@H](C)C(=O)N[C@@H](CO)C(=O)N[C@@H](Cc1ccc(O)cc1)C(=O)N[C@@H](CCCNC(=N)N)C(=O)N[C@@H](CCCCN)C(=O)N[C@H](C(=O)N[C@@H](CC(C)C)C(=O)N[C@@H](C)C(=O)N[C@@H](CCC(N)=O)C(=O)N[C@@H](CC(C)C)C(=O)N[C@@H](CO)C(=O)N[C@@H](C)C(=O)N[C@@H](CCCNC(=N)N)C(=O)N[C@@H](CCCCN)C(=O)N[C@@H](CCCCN)C(=O)N[C@@H](CC(C)C)C(=O)N[C@@H](CCC(N)=O)C(=O)N[C@@H](CC(=O)O)C(=O)N[C@H](C(=O)N[C@@H](CCSC)C(=O)N[C@@H](CO)C(=O)N[C@@H](CCCNC(=N)N)C(N)=O)[C@@H](C)CC)C(C)C)[C@@H](C)O [D-Ala^2, Ala^8, Ala^15, Lys^22] (H-Y[dA]DAIFTASYRKVLAQLSARKKLQDIMSR-NH2; N-terminus assumed)			Hill coef. ([2]; Table 11): 0.53 ± 0.06; IC50 ([2]; Table 11, mean±SD of 2 or mean±SE of 3 experiments for analogues, mean±SE of 11 for hGRF(1-29)NH2): 0.18 ± 0.08 nM; Relative affinity ([2]; Table 11): 1333 ± 31%
D-Ala^2, Ala^8, D-Tyr^10, Ala^15, D-Lys^21, Lys^22 analogue of hGRF(1-29)NH2 (Table 11, No. 14) (from UniProt P01286) (peptide)	0.48 nM	500%	
D-Ala^2,D-Tyr^10,Lys^22 ! hGRF(1-29)NH2 (from UniProt P01286) (peptide)		490%	
bpa^9 analogue of hGRF(1-29)NH2 (Table 7, number 15) (from UniProt P01286) (peptide)	28.4 nM	9%	
npa^1 analogue of hGRF(1-29)NH2 (Table 7, number 3) (from UniProt P01286) (peptide)	376 nM	7%	
npa^5 analogue of hGRF(1-29)NH2 (Table 7, number 7) (from UniProt P01286) (peptide)	27.7 nM	10%	
npa^6 analogue of hGRF(1-29)NH2 (Table 7, number 8) (from UniProt P01286) (peptide)	30.9 nM	8.6%	

More lines, main results first:

IC50 [1]	Relative affinity (%) against hGRF(1-29)NH2 [1]	Compound	other results
4.43 nM	60%	4'-nitro-phenylalanine^10 !hGRF(1-29)NH2 (from UniProt P01286) (peptide)	
	1330%	D-Ala^2, Ala^8, Ala^15, Lys^22 analogue of hGRF(1-29)NH2 (Table 11, No. 13) (from UniProt P01286) (peptide)	
	104%	D-Ala^2, D-Tyr^10,D-Ala^15,Lys^22 ! hGRF(1-29)NH2 (from UniProt P01286) (peptide)	
9.65 nM	25%	D-Ala^2,D-Tyr^10 ! hGRF(1-29)NH2 (from UniProt P01286) (peptide)	
11.6 nM	21%	D-Ala^2,D-Tyr^10, D-Lys^21 ! hGRF(1-29)NH2 (from UniProt P01286) (peptide)	
4.4 nM	61%	His^1, bpa^9, Nle^27 analogue of hGRF(1-29)NH2 (Table 7, number 17) (from UniProt P01286) (peptide)	
34.5 nM	8%	bpa^0 analogue of hGRF(1-29)NH2 (Table 7, number 13) (from UniProt P01286) (peptide)	
64.7 nM	4%	bpa^4 analogue of hGRF(1-29)NH2 (Table 7, number 14) (from UniProt P01286) (peptide)	
	14%	npa0 analogue of hGRF(1-29)NH2 (Table 7, number 2) (from UniProt P01286) (peptide)	
751 nM	0.3%	npa^2 analogue of hGRF(1-29)NH2 (Table 7, number 4) (from UniProt P01286) (peptide)	
197 nM	1.3%	npa^3 analogue of hGRF(1-29)NH2 (Table 7, number 5) (from UniProt P01286) (peptide)	
8.65 nM	31%	npa^4 analogue of hGRF(1-29)NH2 (Table 7, number 6) (from UniProt P01286) (peptide)	
33.7 nM	7.9%	npa^7 analogue of hGRF(1-29)NH2 (Table 7, number 9) (from UniProt P01286) (peptide)	
54.1 nM	5%	npa^8 analogue of hGRF(1-29)NH2 (Table 7, number 10) (from UniProt P01286) (peptide)	
	35%	octanoyl^30,Cys^31 ! hGRF(1-29)NH2 (from UniProt P01286) (peptide)	
